Assay [1] deals with T1, CD3E&D protein (UniProt P04234 22-105).
T1 construct: Purchased from Acro; also called CD3 E&D antigens; CD3E&D antigen protein
Briefly: ELISA, coated CD3E&D protein, OD450 [panel A]. The method, then:
(§1) In this example, the binding properties of the parental antibody Cross3 and the CD3 affinity-reduced antibody (the production method and the amino acid sequences of the heavy and light chains were shown in Example 1) were detected by ELISA. The CD3E&D protein was coated onto a 96-well plate by the inventors, and the strength of the signal after the addition of the antibody was used to determine the binding properties of the antibody and CD3E&D.
(§2) CD3E&D protein (purchased from Acro) was diluted to 2 μg/ml with PBS buffer, added to a 96-well plate at a volume of 100 μL/well, and placed at 4° C. overnight. The PBS buffer in the 96-well plate was aspirated, and the plate was washed 6 times with PBST (pH 7.2 PBS containing 0.1% Tween 20) buffer. Then, 200 μL/well PBS/10% BSA was added and incubated at 37° C. for 2 h for blocking. The blocking solution was removed, and the plate was washed six times with PBST. Then, the to-be-tested antibodies serially diluted with PBST/0.05% BSA, Cross3, Cross303, Cross307, Cross308, Cross309, Cross310, Cross311, Cross312, Cross313, Cross314, Cross316, Cross317, Cross318, Cross323, Cross325, Cross326, and control IgG1 (purchased from Bio-Tech) were added at 100 μL/well, and incubated at 37° C. for 1 h. The reaction system was removed, and the plate was washed 6 times with PBST. Then, the cells were incubated at 37° C. for 1 h with HRP (horseradish peroxidase)-labeled anti-human secondary antibody (Fab specific) (purchased from Sigma) serially diluted with PBST/0.05% BSA at 100 μL/well. The plate was washed six times with PBST, TMB (tetramethylbenzidine) was added at 80 μL/well and incubated at room temperature for 3 min. 4 M sulfuric acid was added at 80 μL/well to terminate the reaction. The absorbance was read at 450 nm using a microplate reader.
(In an ELISA, binding on a coated surface is turned into a signal by an enzyme label.)

Assay [2] addresses T1, CD3E&D protein. Put plainly: SPR (Biacore 8K), antibody on CM5 chip, CD3 E&D antigen as analyte. Details: Fold change: reference not given here. As to the method:
In a Biacore 8K (Cytiva) system, the antibody was diluted to 10 μg/mL in HBS-EP running buffer and coupled to a CM5 chip (Cytiva) at a flow rate of 10 μL/min.
On the technique in general: Surface plasmon resonance follows binding to a sensor surface in real time, without labels.

The target in assay [3] is T2, CD3 on CD8 T cells (Homo sapiens (Human), UniProt P07766 23-207).
T2 construct: Native CD3 complex on CD8 T cells among PBMCs; also called T cells (PBMCs gated with anti-human CD8 antibody)
Put plainly: flow cytometry, CD8 T cells in PBMCs, binding ratio % [panel A]. As to the method: PBMCs were diluted with PBS to 2×10⁶/mL and added to a 1.5 ml EP tube at a volume of 100 μL/tube, 10 μL/tube of goat serum was added thereto and incubated at 4° C. for 30 min for blocking. […] 1 mL of PBS was added to the EP tube, followed by centrifugation at 3500 rpm for 5 min at 4° C. The supernatant was discarded, and the cells were washed again with PBS. After centrifugation, the supernatant was discarded, and the cells were resuspended with 100 μl/tube PBS. 1 μl/tube Alexa-647-labeled goat anti-human secondary antibody (purchased from Jackson lab) and 0.5 μl/tube PerCP-Cy5.5-labeled anti-human CD8 antibody were added and incubated at 4° C. in the dark for 30 min. The cells were washed twice with PBS, and the supernatant was discarded after centrifugation. The cells were resuspended with […] of PBS and assayed using the flow cytometry.
(In general: In flow cytometry, cells or beads pass a laser one at a time.)

Assay [4] deals with T1, CD3E&D protein. Put plainly: ELISA, coated CD3E&D protein, OD450 [panel C]. As to the method: as §1, §2
The target in assay [5] is T2, CD3 on CD8 T cells. Put plainly: flow cytometry, CD8 T cells in PBMCs, binding ratio % [panel A]. As to the method:
(1) PBMCs were diluted to 2×10⁶/ml with PBS and added to a 1.5 ml EP tube at 100 μl/tube, goat serum was added thereto at 10 μl/tube. The cells were blocked at 4° C. for 30 min. The serially diluted bispecific antibodies, Cross3×Trop2, Cross303×Trop2, Cross307×Trop2, Cross308×Trop2, Cross309×Trop2, Cross310×Trop2, Cross311×Trop2, Cross312×Trop2, Cross313×Trop2, Cross314×Trop2, Cross316×Trop2, Cross317×Trop2, Cross318×Trop2, Cross323×Trop2, Cross325×Trop2, Cross326×Trop2, Cross3×PDL1, Cross313×PDL1, Cross316×PDL1, Cross325×PDL1, and control hIgG1LALA (purchased from Bio-Tech) were added and incubated at 4° C. for 30 min. 1 ml of PBS was added to the EP tube, followed by centrifugation at 3500 rpm for 5 min at 4° C. The supernatant was discarded, and the system was washed again with PBS. After centrifugation, the supernatant was discarded, and the cells were resuspended with PBS at 100 μl/tube. 1 μl/tube Alexa-647-labeled goat anti-human IgG secondary antibody (purchased from Jackson lab) and 0.5 μl/tube PerCP-Cy5.5-labeled anti-human CD8 antibody were added and incubated at 4° C. in the dark for 30 min. The cells were washed twice with PBS. After centrifugation, the supernatant was discarded. The cells were resuspended with 200 μl/tube of PBS and assay is performed by flow cytometry.
The source holds these as a separate data set.

In assay [6] the target is T3, PDL1 on A-375 melanoma cells, HCT-15 colorectal cancer cells and A549 lung cancer cells (UniProt Q9NZQ7 19-290, limits assumed).
T3 construct: whole, on cells
Put plainly: flow cytometry, A549 cells, MFI [panel B]. The method, then:
(2) The tumor cells were diluted to 2×10⁶/ml with PBS and added to a 1.5 ml EP tube at a volume of 100 μl/tube, and goat serum was added thereto at 10 μl/tube. The cells were blocked at 4° C. for 30 min. The serially diluted bispecific antibodies, Cross3×Trop2, Cross303×Trop2, Cross307×Trop2, Cross308×Trop2, Cross309×Trop2, Cross310×Trop2, Cross311×Trop2, Cross312×Trop2, Cross313×Trop2, Cross314×Trop2, Cross316×Trop2, Cross317×Trop2, Cross318×Trop2, Cross323×Trop2, Cross325×Trop2, Cross326×Trop2, and Cross3×PDL1, Cross303×PDL1, Cross307×PDL1, Cross308×PDL1, Cross309×PDL1, Cross310×PDL1, Cross311×PDL1, Cross312×PDL1, Cross313×PDL1, Cross314×PDL1, Cross316×PDL1, Cross317×PDL1, Cross318×PDL1, Cross323×PDL1, Cross325×PDL1, Cross326×PDL1, and control hIgG1LALA (purchased from Bio-Tech) were added and incubated at 4° C. for 30 min. 1 ml of PBS was added to the EP tube, followed by centrifugation at 3500 rpm for 5 min at 4° C. The supernatant was discarded, and the cells were washed again with PBS. After centrifugation, the supernatant was completely discarded, and the cells were resuspended with PBS at 100 μl/tube. Alexa-647-labeled goat anti-human IgG secondary antibody (purchased from Jackson lab) was added at 1 μl/tube and incubated at 4° C. in the dark for 30 min. The cells were washed twice with PBS, and the supernatant was completely discarded after centrifugation. The cells were resuspended with PBS at 200 μl/tube and assay was performed using the flow cytometry.

Assay [7] has as its target T4, PDL1 protein (UniProt Q9NZQ7 19-238).
T4 construct: Bought recombinant protein
Put plainly: ELISA, coated PDL1 protein, OD450 [panel A]. As to the method:
(§3) (3) PDL1 protein (purchased from Acro) was diluted to 2 μg/ml with PBS buffer, added to a 96-well plate at a volume of 100 μL/well, and placed at 4° C. overnight. The PBS buffer in the 96-well plate was aspirated, and the plate was washed 6 times with PBST (pH 7.2 PBS containing 0.10% Tween 20) buffer. Then, PBS/10% BSA was added at 200 μL/well and incubated at 37° C. for 2 h for blocking. The blocking solution was removed, and the plate was washed six times with PBST. Then, the to-be-tested bispecific antibodies serially diluted with PBST/0.05% BSA, Cross3×PDL1, Cross303×PDL1, Cross307×PDL1, Cross308×PDL1, Cross309×PDL1, Cross310×PDL1, Cross311×PDL1, Cross312×PDL1, Cross313×PDL1, Cross314×PDL1, Cross316×PDL1, Cross317×PDL1, Cross318×PDL1, Cross323×PDL1, Cross325×PDL1, Cross326×PDL1, and control IgG1LALA (purchased from Bio-Tech) were added at 100 μL/well, and incubated at 37° C. for 1 h. The reaction system was removed, and the plate was washed 6 times with PBST. Then, the cells were incubated at 37° C. for 1 h with HRP (horseradish peroxidase)-labeled anti-human secondary antibody (Fab specific) (purchased from Sigma) serially diluted with PBST/0.05% BSA at 100 μL/well. After the plate was washed six times with PBST, TMB (tetramethylbenzidine) was added at 80 μL/well and incubated at room temperature for 3 min. 4 M sulfuric acid was added at 80 μL/well to terminate the reaction. The absorbance was read at 450 nm using a microplate reader.

Assay [8] addresses T4, PDL1 protein. Briefly: ELISA, coated PDL1 protein, OD450 [panel B]. As to the method:
as §3

Where a chain is given by its changes, count along the chain named. Read-outs that look alike come from different tables or passages of the source.

T2 sequence (P07766 23-207 limits assumed): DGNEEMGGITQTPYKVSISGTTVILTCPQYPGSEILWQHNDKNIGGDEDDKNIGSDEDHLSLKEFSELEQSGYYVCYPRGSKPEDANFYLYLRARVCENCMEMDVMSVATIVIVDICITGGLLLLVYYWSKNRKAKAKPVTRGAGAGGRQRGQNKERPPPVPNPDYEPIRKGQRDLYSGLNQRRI
T1 sequence (chain, as listed by the source limits assumed, chain 1 of 2): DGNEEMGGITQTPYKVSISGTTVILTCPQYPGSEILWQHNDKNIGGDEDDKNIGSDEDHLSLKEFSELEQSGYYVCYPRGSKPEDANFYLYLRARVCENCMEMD
T1 sequence (P04234 22-105 limits assumed, chain 2 of 2): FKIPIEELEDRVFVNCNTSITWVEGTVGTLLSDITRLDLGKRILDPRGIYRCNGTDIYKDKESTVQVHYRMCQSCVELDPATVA
T4 sequence (Q9NZQ7 19-238 limits assumed): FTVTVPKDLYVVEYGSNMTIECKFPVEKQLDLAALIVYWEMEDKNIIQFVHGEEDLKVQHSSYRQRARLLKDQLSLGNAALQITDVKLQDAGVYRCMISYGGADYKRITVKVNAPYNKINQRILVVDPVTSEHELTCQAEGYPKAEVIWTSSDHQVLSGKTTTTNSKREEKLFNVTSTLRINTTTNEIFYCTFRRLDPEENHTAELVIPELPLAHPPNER
T3 sequence (Q9NZQ7 19-290 limits assumed): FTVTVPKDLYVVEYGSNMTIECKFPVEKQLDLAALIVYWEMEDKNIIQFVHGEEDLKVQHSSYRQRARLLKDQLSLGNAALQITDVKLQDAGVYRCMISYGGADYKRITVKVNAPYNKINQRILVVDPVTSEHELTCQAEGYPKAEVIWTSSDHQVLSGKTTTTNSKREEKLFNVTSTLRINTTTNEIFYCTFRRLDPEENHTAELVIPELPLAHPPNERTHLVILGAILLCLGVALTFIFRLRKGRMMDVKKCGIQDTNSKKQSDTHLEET

B1: Cross308 (antibody, human IgG1, kappa, V domains shown)
VH: EVQLLESGGGLVQPGGSLKLSCAASGFTFNTYAMNWVRQAPGKGLEWVARIRSKYNNYATYYADSVKDRFTISRDDSKNTAYLQMNNLKTEDTAVYYCVRHGNFGNPYVSWFAYWGQGTLVTVSS
VL: ELVVTQEPSLTVSPGGTVTLTCRSSTGAVTTSNYANWVQQKPGQAPRGLIGGTNKRAPGTPARFSGSLLGGKAALTLSGVQPEDEAEYYCALWYSNLWVFGGGTKLTVLR
Regarding B1, the concentration for a half-maximal effect (EC50 (read off the curve)) (commonly the concentration needed to bring the measured effect to its halfway point) with CD3E&D protein [1] is approximately 0.03 µg/mL. In the assay with CD3E&D protein [2], the Fold change is 11.8; the Kd (usually the constant that tells how readily two partners part at equilibrium) is 1.95 nM; the off-rate (koff) (as a rule, a measure of how fast the partners let go of each other) worked out at 0.0209 s⁻¹; the kon (in general, a measure of how fast the partners come together) was determined as 1.07e+07 M⁻¹ s⁻¹.

B2: Cross310 (antibody, human IgG1, kappa, V domains shown)
VH: B1 VH with P107Y
VL: B1 VL
On to B2, for which, in the assay with CD3E&D protein [1], the “EC50 (read off the curve)” value was approximately 0.03 µg/mL. In the assay with CD3 on CD8 T cells [3], the “EC50 (read off the curve)” value is approximately 0.3 µg/mL. In the assay with CD3E&D protein [2], this molecule gave a Fold change of 16.8, a dissociation constant (Kd) of 2.77 nM, a koff of 0.00613 s⁻¹ and a kon of 2.22e+06 M⁻¹ s⁻¹.

B3: Cross309 (antibody, human IgG1, kappa, V domains shown)
VH: B1 VH with P107V
VL: B1 VL
Regarding B3, in the assay with CD3E&D protein [1], the concentration for a half-maximal effect (EC50 (read off the curve)) was approximately 0.03 µg/mL. In the assay with CD3 on CD8 T cells [3], the concentration for a half-maximal effect (EC50 (read off the curve)) was approximately 0.4 µg/mL. Besides, in the assay with CD3E&D protein [2], the Fold change was 11.1, the dissociation constant (Kd) turned out to be 1.83 nM, the koff was found to be 0.0124 s⁻¹ and the on-rate (kon) is 6.76e+06 M⁻¹ s⁻¹.

B4: Cross326 (antibody, human IgG1, kappa, V domains shown)
VH: B1 VH with P107S
VL: B1 VL with L97P
For B4, the “EC50 (read off the curve)” value with CD3E&D protein [4] is approximately 0.03 µg/mL. In the assay with CD3E&D protein [2], this molecule registered a Fold change of 16.5, a dissociation constant Kd of 2.73 nM, an off-rate (koff) of 0.0386 s⁻¹ and a kon of 1.41e+07 M⁻¹ s⁻¹.

B5: Cross313×PDL1 (bispecific antibody, human IgG1, kappa, L234A L235A)
scFv: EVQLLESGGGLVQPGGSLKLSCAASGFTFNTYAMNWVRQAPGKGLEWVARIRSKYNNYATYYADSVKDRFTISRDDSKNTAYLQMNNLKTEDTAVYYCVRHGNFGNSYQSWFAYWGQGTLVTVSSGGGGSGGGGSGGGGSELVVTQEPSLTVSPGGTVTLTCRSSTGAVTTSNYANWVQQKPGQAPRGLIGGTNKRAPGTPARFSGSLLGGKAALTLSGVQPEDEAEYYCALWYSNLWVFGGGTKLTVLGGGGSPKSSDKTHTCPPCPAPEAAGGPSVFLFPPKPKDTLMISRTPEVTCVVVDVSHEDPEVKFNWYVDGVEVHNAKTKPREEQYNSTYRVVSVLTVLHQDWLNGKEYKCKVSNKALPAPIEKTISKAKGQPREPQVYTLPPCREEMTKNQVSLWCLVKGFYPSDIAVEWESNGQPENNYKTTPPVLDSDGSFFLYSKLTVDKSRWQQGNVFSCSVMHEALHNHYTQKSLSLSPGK
heavy: QVQLVQSGAEVKKPGASVKVSCKASGYSFTGYYMHWVRQAPGQGLEWIGRINPYNGATTYSQNFKDRATMTVDTSISTAYMELSRLRSDDTAVYYCVPTGMGYFLMDYWGQGTLVTVSSASTKGPSVFPLAPSSKSTSGGTAALGCLVKDYFPEPVTVSWNSGALTSGVHTFPAVLQSSGLYSLSSVVTVPSSSLGTQTYICNVNHKPSNTKVDKKVEPKSCDKTHTCPPCPAPEAAGGPSVFLFPPKPKDTLMISRTPEVTCVVVDVSHEDPEVKFNWYVDGVEVHNAKTKPREEQYNSTYRVVSVLTVLHQDWLNGKEYKCKVSNKALPAPIEKTISKAKGQPREPQVCTLPPSREEMTKNQVSLSCAVKGFYPSDIAVEWESNGQPENNYKTTPPVLDSDGSFFLVSKLTVDKSRWQQGNVFSCSVMHEALHNHYTQKSLSLSPGK
light: DIQLTQSPSFLSASVGDRVTITCKASQDVGSAVVWYQQKPGKAPKLLIYWASTRHTGVPSRFSGSGSGTEFTLTISSLQPEDFATYFCQQFTSYPTFGQGTKLEIKRTVAAPSVFIFPPSDEQLKSGTASVVCLLNNFYPREAKVQWKVDNALQSGNSQESVTEQDSKDSTYSLSSTLTLSKADYEKHKVYACEVTHQGLSSPVTKSFNRGEC
As for B5, the concentration giving a half-maximal response (EC50 (read off the curve)) in the assay with CD3 on CD8 T cells [5] is approximately 2 µg/mL; in assay [6] it was approximately 1 µg/mL; with PDL1 protein [7], approximately 0.2 µg/mL.

B6: Cross317×PDL1 (bispecific antibody, human IgG1, kappa, L234A L235A)
scFv: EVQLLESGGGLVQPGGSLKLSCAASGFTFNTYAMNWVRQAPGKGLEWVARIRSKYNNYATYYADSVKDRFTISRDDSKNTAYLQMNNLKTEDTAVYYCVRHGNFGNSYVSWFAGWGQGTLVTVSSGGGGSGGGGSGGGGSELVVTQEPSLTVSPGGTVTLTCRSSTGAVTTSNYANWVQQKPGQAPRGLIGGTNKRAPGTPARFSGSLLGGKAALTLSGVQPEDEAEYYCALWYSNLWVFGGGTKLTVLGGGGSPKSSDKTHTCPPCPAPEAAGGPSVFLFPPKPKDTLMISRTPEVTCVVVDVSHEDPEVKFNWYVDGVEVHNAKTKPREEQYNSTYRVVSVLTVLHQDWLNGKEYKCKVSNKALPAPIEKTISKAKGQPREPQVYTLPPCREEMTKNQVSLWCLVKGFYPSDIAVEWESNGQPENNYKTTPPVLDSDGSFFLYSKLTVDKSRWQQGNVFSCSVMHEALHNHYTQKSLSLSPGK
heavy: B5 heavy
light: B5 light
With B6, the “EC50 (read off the curve)” value with PDL1 protein [8] is approximately 0.2 µg/mL; in assay [6], approximately 1 µg/mL.

Values taken from patent US20260125472A1 (HEFEI TG IMMUNOPHARMA, published 2026).
